Experimental data from patent US7902330 (ALBERT EINSTEIN COLLEGE OF MEDICINE OF YESHIVA UNIVERSITY, dated 2011).
Starred links: 1 amine or outer side, 2 acyl side, 3 side chain; linkers in the order of their positions; H or OH if unused. Non-standard residues stand in square brackets, D forms with d. No end group written: not given here. *: point of attachment. 4‑nitrohippuryl = O=C(NCC(=O)*)c1ccc([N+](=O)[O-])cc1; Benzoyl(4-(pyrrol-1-yl)) = O=C(c1ccc(-n2cccc2)cc1)*; 10‑hydroxydecanoyl = O=C(CCCCCCCCCO)*; 2,3‑dihydroxybenzyl = Oc1cccc(C*)c1O; Cysteamide = C(CS[*:3])N[*:1]; Dap = NC[C@H](N)C(=O)O

Key:
protein kinase Cα [1] = molecular target: T1, protein kinase Cα (UniProt P17252 1-672, limits assumed); experiment: cell-based or functional assay
protein kinase Cα [2] = molecular target: T1, protein kinase Cα; experiment: PKCα 33P kinase assay, Ki obtained by varying the concentration of peptide substrate Ac-Ser-Phe-Arg-Arg-Arg-NH2
Experimental: Subsequent assay workup and scintillation counting were performed as described under "Protein Kinase C α, β and γ Assay (library screening)".
The reaction was initiated as described above. […] Following an additional 5 min incubation at ambient temperature, 75 µL from each reaction well was transferred into each well of a Unifilter (P81 cellulose phosphate paper) assay plate and washed four times with 0.1% phosphoric acid in water. […] IC$50$ values were calculated using GraFit (Erithacus Software Limited) and K_i values were calculated using Enzyme Kinetics, SigmaPlot (SPSS Inc.)

protein kinase C ζ [3] = molecular target: T2, protein kinase C ζ (UniProt Q05513 1-592, limits assumed); experiment: cell-based or functional assay
T2 sequence (looked up): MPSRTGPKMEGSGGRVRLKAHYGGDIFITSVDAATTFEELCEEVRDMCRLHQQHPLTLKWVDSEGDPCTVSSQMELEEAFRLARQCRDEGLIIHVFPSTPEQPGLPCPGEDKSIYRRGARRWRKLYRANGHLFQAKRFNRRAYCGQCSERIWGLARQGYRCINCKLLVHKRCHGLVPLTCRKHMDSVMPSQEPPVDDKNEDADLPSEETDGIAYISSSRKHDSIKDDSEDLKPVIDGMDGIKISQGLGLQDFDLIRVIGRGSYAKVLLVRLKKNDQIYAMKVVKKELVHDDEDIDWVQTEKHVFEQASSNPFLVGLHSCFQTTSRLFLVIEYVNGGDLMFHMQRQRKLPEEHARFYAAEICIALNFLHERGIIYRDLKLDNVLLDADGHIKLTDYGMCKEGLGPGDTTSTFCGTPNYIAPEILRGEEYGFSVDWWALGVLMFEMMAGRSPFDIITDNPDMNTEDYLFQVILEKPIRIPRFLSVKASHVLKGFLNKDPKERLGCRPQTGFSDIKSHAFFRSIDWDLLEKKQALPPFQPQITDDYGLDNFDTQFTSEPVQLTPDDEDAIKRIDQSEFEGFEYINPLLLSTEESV

protein kinase C γ [4] = molecular target: T3, protein kinase C γ (UniProt P05129 1-697, limits assumed); experiment: cell-based or functional assay
protein kinase C ε [5] = molecular target: T4, protein kinase C ε (UniProt Q02156 1-737, limits assumed); experiment: cell-based or functional assay
T4 sequence (looked up): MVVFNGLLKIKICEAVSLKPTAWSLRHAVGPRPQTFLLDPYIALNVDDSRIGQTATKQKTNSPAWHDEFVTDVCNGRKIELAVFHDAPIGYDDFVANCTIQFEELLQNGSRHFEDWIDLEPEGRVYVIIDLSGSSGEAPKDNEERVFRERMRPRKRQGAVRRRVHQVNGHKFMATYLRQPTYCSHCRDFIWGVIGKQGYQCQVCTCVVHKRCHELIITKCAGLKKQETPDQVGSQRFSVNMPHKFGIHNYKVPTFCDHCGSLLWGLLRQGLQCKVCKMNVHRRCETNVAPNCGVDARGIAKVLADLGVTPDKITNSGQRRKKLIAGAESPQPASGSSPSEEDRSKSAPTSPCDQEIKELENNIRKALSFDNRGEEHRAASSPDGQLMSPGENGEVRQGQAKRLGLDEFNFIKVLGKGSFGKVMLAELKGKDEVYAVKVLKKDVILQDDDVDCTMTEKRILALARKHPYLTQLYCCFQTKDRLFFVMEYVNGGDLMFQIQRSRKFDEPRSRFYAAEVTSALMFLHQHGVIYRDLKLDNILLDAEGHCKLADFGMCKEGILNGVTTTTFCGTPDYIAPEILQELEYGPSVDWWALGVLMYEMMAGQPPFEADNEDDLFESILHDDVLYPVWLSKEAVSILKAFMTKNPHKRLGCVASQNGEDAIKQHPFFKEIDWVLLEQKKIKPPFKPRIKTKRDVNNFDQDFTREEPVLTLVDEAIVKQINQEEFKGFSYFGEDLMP

protein kinase C η [6] = molecular target: T5, protein kinase C η (UniProt P24723 1-683, limits assumed); experiment: cell-based or functional assay
protein kinase C θ [7] = molecular target: T6, protein kinase C θ (UniProt Q04759 1-706, limits assumed); experiment: cell-based or functional assay
[8] = molecular target: T7, protein kinase C τ (atypical; ι in the tables) (UniProt P41743 1-596); experiment: cell-based or functional assay
T7 sequence (looked up): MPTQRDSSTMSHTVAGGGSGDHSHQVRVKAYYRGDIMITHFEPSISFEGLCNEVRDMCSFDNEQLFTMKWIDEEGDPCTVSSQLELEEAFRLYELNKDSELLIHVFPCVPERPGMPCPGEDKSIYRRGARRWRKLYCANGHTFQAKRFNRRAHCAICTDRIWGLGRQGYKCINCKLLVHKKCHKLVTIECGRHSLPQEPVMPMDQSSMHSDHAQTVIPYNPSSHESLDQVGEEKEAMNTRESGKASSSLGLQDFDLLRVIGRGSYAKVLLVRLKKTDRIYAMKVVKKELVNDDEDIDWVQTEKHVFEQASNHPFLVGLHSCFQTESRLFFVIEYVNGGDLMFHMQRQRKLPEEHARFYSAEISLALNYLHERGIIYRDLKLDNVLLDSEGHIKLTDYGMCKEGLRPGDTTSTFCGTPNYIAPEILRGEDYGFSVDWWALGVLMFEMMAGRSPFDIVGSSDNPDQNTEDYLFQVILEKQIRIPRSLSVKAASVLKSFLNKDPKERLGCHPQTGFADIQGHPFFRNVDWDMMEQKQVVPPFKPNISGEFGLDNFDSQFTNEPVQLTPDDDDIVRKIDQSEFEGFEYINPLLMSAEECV

protein kinase Cα [9] = molecular target: T1, protein kinase Cα; experiment: cell-based or functional assay; remark: listed apart in the source
protein kinase C βI [10] = molecular target: T8, protein kinase C βI (UniProt P05771-1 1-671, limits assumed); experiment: cell-based or functional assay
protein kinase C γ [11] = molecular target: T3, protein kinase C γ; experiment: cell-based or functional assay; remark: listed apart in the source
protein kinase C ε [12] = molecular target: T4, protein kinase C ε; experiment: cell-based or functional assay; remark: listed apart in the source
protein kinase C η [13] = molecular target: T5, protein kinase C η; experiment: cell-based or functional assay; remark: listed apart in the source
protein kinase C θ [14] = molecular target: T6, protein kinase C θ; experiment: cell-based or functional assay; remark: listed apart in the source
[15] = molecular target: T7, protein kinase C τ (atypical; printed ι …); experiment: cell-based or functional assay; remark: listed apart in the source
protein kinase C ζ [16] = molecular target: T2, protein kinase C ζ; experiment: cell-based or functional assay; remark: listed apart in the source
protein kinase Cα [17] = molecular target: T1, protein kinase Cα; experiment: cell-based or functional assay; remark: listed apart in the source
protein kinase C βI [18] = molecular target: T8, protein kinase C βI; experiment: cell-based or functional assay; remark: listed apart in the source
protein kinase C γ [19] = molecular target: T3, protein kinase C γ; experiment: cell-based or functional assay; remark: listed apart in the source
protein kinase C ε [20] = molecular target: T4, protein kinase C ε; experiment: cell-based or functional assay; remark: listed apart in the source
protein kinase C η [21] = molecular target: T5, protein kinase C η; experiment: cell-based or functional assay; remark: listed apart in the source
protein kinase C θ [22] = molecular target: T6, protein kinase C θ; experiment: cell-based or functional assay; remark: listed apart in the source
[23] = molecular target: T7, protein kinase C τ (atypical; printed ι …); experiment: cell-based or functional assay; remark: listed apart in the source
protein kinase C ζ [24] = molecular target: T2, protein kinase C ζ; experiment: cell-based or functional assay; remark: listed apart in the source
protein kinase Cα [25] = molecular target: T1, protein kinase Cα; experiment: cell-based or functional assay; remark: listed apart in the source
protein kinase C βI [26] = molecular target: T8, protein kinase C βI; experiment: cell-based or functional assay; remark: listed apart in the source

T8 sequence (P05771 whole entry): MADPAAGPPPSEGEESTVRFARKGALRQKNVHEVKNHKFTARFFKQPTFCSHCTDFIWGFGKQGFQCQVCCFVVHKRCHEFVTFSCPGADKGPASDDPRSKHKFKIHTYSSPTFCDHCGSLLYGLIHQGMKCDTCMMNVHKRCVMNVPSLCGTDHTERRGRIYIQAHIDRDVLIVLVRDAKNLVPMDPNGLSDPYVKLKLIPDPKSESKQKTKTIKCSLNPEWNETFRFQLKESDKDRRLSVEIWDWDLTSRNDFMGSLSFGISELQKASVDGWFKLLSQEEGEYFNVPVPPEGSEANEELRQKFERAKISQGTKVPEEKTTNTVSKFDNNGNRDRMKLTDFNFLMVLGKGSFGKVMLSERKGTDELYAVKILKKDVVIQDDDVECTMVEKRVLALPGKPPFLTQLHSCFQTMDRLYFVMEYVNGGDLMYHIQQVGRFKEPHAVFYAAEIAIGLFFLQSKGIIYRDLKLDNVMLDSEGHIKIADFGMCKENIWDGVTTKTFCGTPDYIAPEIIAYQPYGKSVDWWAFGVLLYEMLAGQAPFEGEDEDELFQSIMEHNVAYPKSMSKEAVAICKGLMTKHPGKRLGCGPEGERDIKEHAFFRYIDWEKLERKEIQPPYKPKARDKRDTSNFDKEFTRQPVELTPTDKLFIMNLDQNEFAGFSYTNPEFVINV
T6 sequence (Q04759 whole entry): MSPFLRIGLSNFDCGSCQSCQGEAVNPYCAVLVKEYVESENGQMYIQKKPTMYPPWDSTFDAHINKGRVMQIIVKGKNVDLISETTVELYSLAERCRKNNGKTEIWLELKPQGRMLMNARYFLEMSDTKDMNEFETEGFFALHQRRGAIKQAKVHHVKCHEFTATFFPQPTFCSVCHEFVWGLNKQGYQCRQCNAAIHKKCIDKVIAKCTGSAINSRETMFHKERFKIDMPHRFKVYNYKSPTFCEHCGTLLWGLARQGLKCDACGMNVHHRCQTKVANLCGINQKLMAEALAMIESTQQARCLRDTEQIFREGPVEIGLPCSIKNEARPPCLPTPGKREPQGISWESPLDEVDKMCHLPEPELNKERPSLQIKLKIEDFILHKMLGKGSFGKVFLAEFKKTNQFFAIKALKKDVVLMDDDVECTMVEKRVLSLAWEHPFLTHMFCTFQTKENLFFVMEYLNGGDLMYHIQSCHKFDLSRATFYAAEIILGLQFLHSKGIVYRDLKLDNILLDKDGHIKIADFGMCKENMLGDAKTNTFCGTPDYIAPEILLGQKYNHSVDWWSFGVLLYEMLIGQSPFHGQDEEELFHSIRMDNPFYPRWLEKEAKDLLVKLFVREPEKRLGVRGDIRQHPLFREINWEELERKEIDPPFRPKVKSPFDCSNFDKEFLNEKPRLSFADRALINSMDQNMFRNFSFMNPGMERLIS
T5 sequence (P24723 whole entry): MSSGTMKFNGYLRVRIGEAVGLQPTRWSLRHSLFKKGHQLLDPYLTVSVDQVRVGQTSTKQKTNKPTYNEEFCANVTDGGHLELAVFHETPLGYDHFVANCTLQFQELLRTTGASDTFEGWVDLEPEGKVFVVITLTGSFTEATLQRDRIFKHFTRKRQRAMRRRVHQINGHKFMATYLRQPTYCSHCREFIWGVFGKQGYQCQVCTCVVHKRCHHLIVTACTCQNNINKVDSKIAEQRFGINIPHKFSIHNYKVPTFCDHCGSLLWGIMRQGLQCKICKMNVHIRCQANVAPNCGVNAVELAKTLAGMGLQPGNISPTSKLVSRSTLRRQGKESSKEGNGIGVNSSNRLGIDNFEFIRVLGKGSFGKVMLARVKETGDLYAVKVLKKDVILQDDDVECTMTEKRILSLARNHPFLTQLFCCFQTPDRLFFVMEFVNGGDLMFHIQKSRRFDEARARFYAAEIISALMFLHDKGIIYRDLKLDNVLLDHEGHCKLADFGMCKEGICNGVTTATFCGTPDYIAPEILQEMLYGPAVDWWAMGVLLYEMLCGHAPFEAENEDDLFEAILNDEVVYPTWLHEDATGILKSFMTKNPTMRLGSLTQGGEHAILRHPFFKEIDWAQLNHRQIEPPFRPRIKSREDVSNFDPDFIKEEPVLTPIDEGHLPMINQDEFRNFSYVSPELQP

B1: compound 4 (diacetylated control peptide) (peptide)
peptide: Ac-ARRGALR[Dap](Ac)A-NH2
notes: also called peptide 4; starting parent peptide 4
Protein kinase Cα [1]
  IC50, PKCα-catalysed phosphorylation of peptide substrate (33P assay): 1100 µM
Protein kinase Cα [2]
  Ki: 350 µM

## Ac-ARRGALR[Dap](Benzoyl(4-(pyrrol-1-yl)))A-Cysteamide (also called peptide 3) [compound 3 (lead from library III)]
Protein kinase Cα [1]
  IC50, PKCα-catalysed phosphorylation of peptide substrate (33P assay): 4.7 µM
Protein kinase Cα [2]
  Ki: 0.55 µM

## Ac-RRQG[Dap](10‑hydroxydecanoyl)FMYF-Cysteamide [Compound B]
Protein kinase C ζ [3]
  IC50, PKC ζ kinase assay: 0.85 µM
  IC50 relative to the diacetylated parent peptide A: ~100 fold

## ARRGALR[Dap](Benzoyl(4-(pyrrol-1-yl)))A-Cysteamide (also: further groups not given here, also called peptide 6; Compound H) [compound 6 (primary lead from library IV)]
Protein kinase C γ [4]
  selectivity for PKCα versus this isoform: 580 fold
Protein kinase C ε [5]
  selectivity for PKCα versus this isoform: 600 fold
Protein kinase C η [6]
  selectivity for PKCα versus this isoform: 1310 fold
Protein kinase C θ [7]
  selectivity for PKCα versus this isoform: 1210 fold
[8]
  selectivity for PKCα versus this isoform: 940 fold
Protein kinase C ζ [3]
  selectivity for PKCα versus this isoform: 640 fold
Protein kinase Cα [9]
  IC50 as an inhibitor of histone III-S phosphorylation by PKCα: 0.0317 µM
Protein kinase C βI [10]
  selectivity for PKCα versus this isoform: 385 fold
Protein kinase Cα [1]
  IC50, PKCα-catalysed phosphorylation of peptide substrate (33P assay): 0.0019 µM
Protein kinase Cα [2]
  Ki: 0.0008 µM

## Ac-RRQG[Dap](Ac)FMYF-Cysteamide [Compound A (diacetylated consensus derivative)]
Protein kinase C ζ [3]
  IC50, PKC kinase assay: 80 µM

## H-RRQG[Dap]FMYF-Cysteamide (not fully specified (residue 5)) [Compound E (nonacylated free amine)]
Protein kinase C γ [11]
  IC50, PKC kinase assay (33P, peptide substrate): 4.4 µM
  Selectivity (IC50 relative to PKC βI = 1): 550 fold
Protein kinase C ε [12]
  IC50, PKC kinase assay (33P, peptide substrate): 2.3 µM
  Selectivity (IC50 relative to PKC βI = 1): 287 fold
Protein kinase C η [13]
  IC50, PKC kinase assay (33P, peptide substrate): 13.2 µM
  Selectivity (IC50 relative to PKC βI = 1): 1650 fold
Protein kinase C θ [14]
  IC50, PKC kinase assay (33P, peptide substrate): 14.2 µM
  Selectivity (IC50 relative to PKC βI = 1): 1780 fold
[15]
  Selectivity (IC50 relative to PKC βI = 1): 94 fold
Protein kinase C ζ [16]
  IC50, PKC kinase assay (33P, peptide substrate): 0.022 µM
  Selectivity (IC50 relative to PKC βI = 1): 2.8 fold
Protein kinase Cα [17]
  IC50, PKC kinase assay (33P, peptide substrate): 3.1 µM
  Selectivity (IC50 relative to PKC βI = 1): 387 fold
Protein kinase C βI [18]
  IC50, PKC kinase assay (33P, peptide substrate): 0.008 µM
  Selectivity (IC50 relative to PKC βI = 1): 1 fold

B2: Compound C (peptide)
peptide: Ac-RRQG[Dap](4‑nitrohippuryl)FMYF-Cysteamide
SMILES: CSCC[C@H](NC(=O)[C@H](Cc1ccccc1)NC(=O)[C@H](CNC(=O)CNC(=O)c1ccc([N+](=O)[O-])cc1)NC(=O)CNC(=O)[C@H](CCC(N)=O)NC(=O)[C@H](CCCNC(=N)N)NC(=O)[C@H](CCCNC(=N)N)NC(C)=O)C(=O)N[C@@H](Cc1ccc(O)cc1)C(=O)N[C@@H](Cc1ccccc1)C(=O)NCCS
Protein kinase C ζ [3]
  IC50, PKC ζ kinase assay: 6.4 µM

## {2,3‑dihydroxybenzyl}-RRQG[Dap](4‑nitrohippuryl)FMYF-Cysteamide [Compound F]
Protein kinase C γ [11]
  IC50, PKC kinase assay (33P, peptide substrate): 9 µM
Protein kinase C ε [12]
  IC50, PKC kinase assay (33P, peptide substrate): 8.8 µM
Protein kinase C η [13]
  IC50, PKC kinase assay (33P, peptide substrate): 12.3 µM
Protein kinase C θ [14]
  IC50, PKC kinase assay (33P, peptide substrate): 13.7 µM
Protein kinase C ζ [16]
  IC50, PKC kinase assay (33P, peptide substrate): 3.6 µM
Protein kinase Cα [17]
  IC50, PKC kinase assay (33P, peptide substrate): 17 µM
Protein kinase C βI [18]
  IC50, PKC kinase assay (33P, peptide substrate): 3.1 µM
Protein kinase C γ [19]
  Fold selectivity (IC50), PKC δ = 1: 500 fold
Protein kinase C ε [20]
  Fold selectivity (IC50), PKC δ = 1: 489 fold
Protein kinase C η [21]
  Fold selectivity (IC50), PKC δ = 1: 683 fold
Protein kinase C θ [22]
  Fold selectivity (IC50), PKC δ = 1: 761 fold
[23]
  Fold selectivity (IC50), PKC δ = 1: 26 fold
Protein kinase C ζ [24]
  Fold selectivity (IC50), PKC δ = 1: 200 fold
Protein kinase Cα [25]
  Fold selectivity (IC50), PKC δ = 1: 944 fold
Protein kinase C βI [26]
  Fold selectivity (IC50), PKC δ = 1: 172 fold
